Patent US20240124607A1 (Merck Sharp & Dohme, published 2024)
Numbering of substitutions follows the chain as printed. Values belong to the binder of their own block, whether it stands above or below them.

Legend:
[1] = molecular target: T1, Human CEACAM8 (human, UniProt P31997 35-320, limits assumed); assay: SPR, 37C, pH 7.4
T1 sequence (looked up): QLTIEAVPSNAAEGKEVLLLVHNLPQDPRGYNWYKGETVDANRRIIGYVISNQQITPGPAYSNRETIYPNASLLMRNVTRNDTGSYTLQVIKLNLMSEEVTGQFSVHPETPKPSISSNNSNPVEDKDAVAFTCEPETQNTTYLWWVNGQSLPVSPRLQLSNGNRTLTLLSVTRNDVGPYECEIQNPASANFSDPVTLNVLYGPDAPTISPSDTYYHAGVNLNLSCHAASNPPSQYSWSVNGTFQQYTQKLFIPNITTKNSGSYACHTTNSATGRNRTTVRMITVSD

[2] = molecular target: T2, CEACAM5 A1-B1-Fc (human, UniProt P06731 145-322, limits assumed); assay: SPR, Fab capt, 25C
T2 construct: also called A1-B1 domain
T2 sequence: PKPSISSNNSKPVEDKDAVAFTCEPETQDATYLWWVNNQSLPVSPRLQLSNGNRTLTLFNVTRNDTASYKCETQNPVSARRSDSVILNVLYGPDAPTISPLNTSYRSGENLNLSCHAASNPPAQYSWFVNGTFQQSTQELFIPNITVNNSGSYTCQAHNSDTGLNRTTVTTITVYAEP
Experimental: If the protein domain was an Fc fusion, AB0411, AB0466, AB0264, or AB0621 were captured using an anti-human Fab antibody (Cytiva, #28958325) immobilized onto a CM5 chip. The various hCEACAM5 protein domains (N-term, A1-B1, A2, B2, A3, or B3) were titrated over the captured TriNKETs at 50 μL/min for 180 sec of association and 300 sec of dissociation. The assay was run at 25° C. in HBS-EP+ running buffer, pH 7.4. The surface of the CM5 chip was regenerated using […] glycine pH 2.1.

[3] = molecular target: T3, Cynomolgus CEACAM5 (cynomolgus monkey); assay: SPR, anti-hFc capture, 37C, pH 6.0
T3 construct: also called cyno CEACAM5
Experimental: (§1) To determine the affinity and cross-reactivity of CEACAM5 TriNKET molecules, AB0411, AB0466, or AB0621 TriNKETs were captured using an anti-human Fc capture antibody (Cytiva, #BR100839) immobilized onto a Biacore CM5 standard surface sensor chip following manufacturer instructions. Human or cynomolgus CEACAM5 were titrated over captured AB0411, AB0466, and AB0621 as 2-fold serial dilutions starting from 300 nM. Association was monitored for 300 sec and dissociation was monitored for 600 sec. The assay was run at 37° C. at pH 7.4 and 6.0. The surface of the CM5 chip was regenerated with 10 mM glycine pH 1.5 for 20 sec at 100 μL/min.

[4] = molecular target: T3, Cynomolgus CEACAM5; assay: SPR, anti-hFc capture, 37C, pH 7.4
Experimental: as §1

[5] = molecular target: Human FcRn (human, UniProt P55899 24-297; P61769 21-119, limits assumed); assay: SPR, anti-kappa capture, 25C, pH 6.0; pH 6.0
Experimental: (§2) Anti-kappa light chain antibody was immobilized onto a CM5 chip following a standard amine-coupling protocol. AB0621 was captured onto the chip and human or cynomolgus FcRn was titrated from 2000 nM as 2-fold serial dilutions. Association was monitored for 120 sec and dissociation was monitored for 180 sec. Assays were run at 25° C. at both pH 7.4 and pH 6.0. The surface of the chip was regenerated with two pulses of 10 mM glycine pH 1.5 for 20 sec at 30 μL/min followed by 10 mM NaOH for 20 sec at 30 μL/min.

[6] = molecular target: Cyno FcRn (cynomolgus monkey, UniProt Q8SPV9 24-297; Q8SPW0 21-119, limits assumed); assay: SPR, anti-kappa capture, 25C, pH 6.0; pH 6.0
Experimental: as §2

[7] = molecular target: T4, Human CEACAM5 (K398) (human, UniProt P06731 35-685, limits assumed); assay: SPR, anti-hFc capture, 37C, pH 7.4
T4 construct: also called K398 allele
T4 sequence: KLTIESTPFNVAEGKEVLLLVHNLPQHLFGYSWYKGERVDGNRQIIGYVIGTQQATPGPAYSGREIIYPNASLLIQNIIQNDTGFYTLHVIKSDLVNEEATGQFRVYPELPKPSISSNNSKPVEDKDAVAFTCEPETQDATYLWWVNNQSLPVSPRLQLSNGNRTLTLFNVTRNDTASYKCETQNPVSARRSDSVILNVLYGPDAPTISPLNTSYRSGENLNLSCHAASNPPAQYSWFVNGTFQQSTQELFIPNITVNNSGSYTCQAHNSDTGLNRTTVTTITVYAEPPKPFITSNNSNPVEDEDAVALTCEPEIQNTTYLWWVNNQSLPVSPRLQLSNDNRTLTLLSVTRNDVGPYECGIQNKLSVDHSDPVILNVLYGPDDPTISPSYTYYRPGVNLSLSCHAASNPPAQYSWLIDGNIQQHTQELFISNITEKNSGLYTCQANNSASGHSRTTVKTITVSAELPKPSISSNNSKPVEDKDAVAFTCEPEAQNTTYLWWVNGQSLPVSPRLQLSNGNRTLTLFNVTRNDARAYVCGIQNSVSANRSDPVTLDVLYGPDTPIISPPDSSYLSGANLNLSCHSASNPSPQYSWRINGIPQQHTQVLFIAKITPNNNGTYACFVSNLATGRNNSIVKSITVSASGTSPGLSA
Experimental: as §1

[8] = molecular target: T5, human CD16A (FcγRIIIA) V158 (human, UniProt P08637 17-208, limits assumed, biotinylated in the assay of Table 21); assay: SPR (Biacore), AB0264 captured on a CM5 chip with immobilised human CEACAM5; 2 uM CD16A, then premix of 2 uM CD16A and 2 uM NKG2D-His
T5 construct: also called CD16A (V158/V176)
Source text: This surface was used to first stably capture AB0264 onto the chip surface. […] The ratio of binding signals (which are proportional to MWs) was approximately 5:1:1 which is consistent with a 1:1:1 molar stoichiometry of complex bound on the CEACAM5 surface.

T5 sequence (P08637 17-208 F176V limits assumed): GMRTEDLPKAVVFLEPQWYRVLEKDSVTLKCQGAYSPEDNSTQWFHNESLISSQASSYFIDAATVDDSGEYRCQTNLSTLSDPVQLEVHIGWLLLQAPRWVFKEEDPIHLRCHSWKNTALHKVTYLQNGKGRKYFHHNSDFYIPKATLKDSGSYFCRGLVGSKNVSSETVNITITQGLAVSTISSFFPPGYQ
Sequence of Cyno FcRn (Q8SPV9 24-297 limits assumed, chain 1 of 2): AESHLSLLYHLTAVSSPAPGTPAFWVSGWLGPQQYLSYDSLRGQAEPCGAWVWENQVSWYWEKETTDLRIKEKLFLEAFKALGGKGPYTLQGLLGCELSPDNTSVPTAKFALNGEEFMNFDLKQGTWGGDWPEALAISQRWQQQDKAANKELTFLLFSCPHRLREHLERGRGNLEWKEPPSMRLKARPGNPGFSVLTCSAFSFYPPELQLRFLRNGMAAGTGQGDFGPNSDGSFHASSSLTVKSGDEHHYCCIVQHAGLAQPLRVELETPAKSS
Sequence of Cyno FcRn (Q8SPW0 21-119 limits assumed, chain 2 of 2): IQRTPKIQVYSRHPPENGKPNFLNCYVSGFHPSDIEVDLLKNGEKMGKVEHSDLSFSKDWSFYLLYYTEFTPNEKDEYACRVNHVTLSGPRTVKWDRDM

Kd [2]: 1.5 nM
kon [2]: 250000 M⁻¹ s⁻¹
Kd [3]: 6.5 nM
kon [3]: 130000 M⁻¹ s⁻¹
Kd [4]: 14 nM
kon [4]: 61000 M⁻¹ s⁻¹
Kd [5]: 440 nM
Kd [6]: 310 nM
B1: AB0621 F3' CEACAM5 TriNKET (bispecific antibody, human IgG1, kappa)
chain: DIVMTQSPDSLAVSLGERATINCKSSHSLLYGNFQNNYLAWYQQKPGQPPKLLIYWASTRESGVPDRFSGSGSGTDFTLTISSLQAEDVAVYYCQQYYSYPYTFGCGTKLEIKGGGGSGGGGSGGGGSGGGGSQVQLVQSGAEVKKPGASVKVSCKASGYTFTAYTIHWVRQAPGQCLEWMGYINPSSGYTEYNQKFKDRTTLTADTSISTAYMELSRLRSDDTAVYYCTREGGLLWFDYWGQGTLVTVSSGSDKTHTCPPCPAPELLGGPSVFLFPPKPKDTLMISRTPEVTCVVVDVSHEDPEVKFNWYVDGVEVHNAKTKPREEQYNSTYRVVSVLTVLHQDWLNGKEYKCKVSNKALPAPIEKTISKAKGQPREPRVYTLPPCRDELTKNQVSLTCLVKGFYPSDIAVEWESNGQPENNYKTTPPVLVSDGSFTLYSKLTVDKSRWQQGNVFSCSVMHEALHNHYTQKSLSLSPG
heavy: EVQLVESGGGLVKPGGSLRLSCAASGFTFSSYSMNWVRQAPGKGLEWVSSISSSSSYIYYADSVKGRFTISRDNAKNSLYLQMNSLRAEDTAVYYCARGAPIGAAAGWFDPWGQGTLVTVSSASTKGPSVFPLAPSSKSTSGGTAALGCLVKDYFPEPVTVSWNSGALTSGVHTFPAVLQSSGLYSLSSVVTVPSSSLGTQTYICNVNHKPSNTKVDKKVEPKSCDKTHTCPPCPAPELLGGPSVFLFPPKPKDTLMISRTPEVTCVVVDVSHEDPEVKFNWYVDGVEVHNAKTKPREEQYNSTYRVVSVLTVLHQDWLNGKEYKCKVSNKALPAPIEKTISKAKGQPREPQVCTLPPSRDELTENQVSLTCLVKGFYPSDIAVEWESNGQPENNYKTTPPVLDSDGSFFLYSWLTVDKSRWQQGNVFSCSVMHEALHNHYTQKSLSLSPG
light: DIQMTQSPSSVSASVGDRVTITCRASQGISSWLAWYQQKPGKAPKLLIYAASSLQSGVPSRFSGSGSGTDFTLTISSLQPEDFATYYCQQGVSFPRTFGGGTKVEIKRTVAAPSVFIFPPSDEQLKSGTASVVCLLNNFYPREAKVQWKVDNALQSGNSQESVTEQDSKDSTYSLSSTLTLSKADYEKHKVYACEVTHQGLSSPVTKSFNRGEC
binding result [1]: no binding (tested: up to 600 and 1200 nM)

Kd [2]: 1 nM
kon [2]: 260000 M⁻¹ s⁻¹
Kd [7]: 13 nM
kon [7]: 91000 M⁻¹ s⁻¹
binding result [8]: binds
B2: AB0264 F3' CEACAM5 TriNKET (bispecific antibody, human IgG1, kappa)
chain: B1 chain with S210P
heavy: B1 heavy
light: B1 light
